From patent US8309523 (VIB VZW, dated 2012)

T1: MALT1 (wild type, Flag- and Avi-tagged bio-construct) (human, UniProt Q9UDY8 1-824, Avi-tag biotinylated in vivo by co-expressed BirA)
T1 construct: also called paracaspase; bio-IP purified MALT1
T1 sequence (looked up): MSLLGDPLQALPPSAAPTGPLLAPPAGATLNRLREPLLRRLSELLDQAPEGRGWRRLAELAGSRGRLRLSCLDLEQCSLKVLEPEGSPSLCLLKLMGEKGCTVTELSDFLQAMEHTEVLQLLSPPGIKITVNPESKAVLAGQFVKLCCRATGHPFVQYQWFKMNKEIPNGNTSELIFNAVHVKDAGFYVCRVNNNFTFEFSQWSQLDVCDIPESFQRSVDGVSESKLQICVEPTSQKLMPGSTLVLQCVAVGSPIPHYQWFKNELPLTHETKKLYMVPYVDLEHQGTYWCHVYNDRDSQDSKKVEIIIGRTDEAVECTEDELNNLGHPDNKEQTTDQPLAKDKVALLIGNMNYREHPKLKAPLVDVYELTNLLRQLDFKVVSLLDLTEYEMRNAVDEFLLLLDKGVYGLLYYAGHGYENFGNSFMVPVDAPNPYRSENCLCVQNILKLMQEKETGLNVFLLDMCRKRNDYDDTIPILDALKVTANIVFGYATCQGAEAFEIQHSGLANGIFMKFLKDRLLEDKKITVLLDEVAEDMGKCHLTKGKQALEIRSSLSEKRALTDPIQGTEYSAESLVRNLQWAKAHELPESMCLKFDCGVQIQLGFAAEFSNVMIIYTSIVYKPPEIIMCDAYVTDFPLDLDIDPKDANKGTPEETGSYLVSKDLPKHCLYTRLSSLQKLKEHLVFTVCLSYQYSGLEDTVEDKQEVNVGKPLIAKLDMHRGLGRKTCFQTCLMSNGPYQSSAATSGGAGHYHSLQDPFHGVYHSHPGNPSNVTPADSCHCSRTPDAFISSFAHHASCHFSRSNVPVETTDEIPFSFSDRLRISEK

T2: MALT1-R149A (bio-tagged) (human, UniProt Q9UDY8 1-824, Avi-tag biotinylated in vivo by co-expressed BirA)
T2 construct: also called R149A mutant
T2 sequence (looked up): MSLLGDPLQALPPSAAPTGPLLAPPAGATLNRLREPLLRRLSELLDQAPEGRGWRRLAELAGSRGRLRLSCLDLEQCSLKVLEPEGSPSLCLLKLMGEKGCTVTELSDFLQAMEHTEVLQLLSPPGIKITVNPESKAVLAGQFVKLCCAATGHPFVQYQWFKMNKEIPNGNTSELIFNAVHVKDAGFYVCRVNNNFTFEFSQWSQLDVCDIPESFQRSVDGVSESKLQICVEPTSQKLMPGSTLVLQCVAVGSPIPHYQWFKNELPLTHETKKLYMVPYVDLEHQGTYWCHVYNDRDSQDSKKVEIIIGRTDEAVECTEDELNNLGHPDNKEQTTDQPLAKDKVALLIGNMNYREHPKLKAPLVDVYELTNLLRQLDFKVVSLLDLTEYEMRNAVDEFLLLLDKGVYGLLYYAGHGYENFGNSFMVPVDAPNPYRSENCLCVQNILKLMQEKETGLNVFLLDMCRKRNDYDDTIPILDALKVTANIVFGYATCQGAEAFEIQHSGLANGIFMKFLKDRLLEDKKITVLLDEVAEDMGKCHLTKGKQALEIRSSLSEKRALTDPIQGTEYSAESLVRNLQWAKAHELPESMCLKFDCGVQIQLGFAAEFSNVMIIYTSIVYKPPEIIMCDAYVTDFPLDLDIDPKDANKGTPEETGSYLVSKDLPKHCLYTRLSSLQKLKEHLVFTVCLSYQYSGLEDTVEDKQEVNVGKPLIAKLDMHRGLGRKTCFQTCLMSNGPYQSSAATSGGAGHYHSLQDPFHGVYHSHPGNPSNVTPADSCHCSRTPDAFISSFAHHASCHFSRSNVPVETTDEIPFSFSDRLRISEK

T3: MALT1-C464A (bio-tagged) (human, UniProt Q9UDY8 1-824)
T3 construct: also called C464A mutant; C464 mutant
T3 sequence (looked up): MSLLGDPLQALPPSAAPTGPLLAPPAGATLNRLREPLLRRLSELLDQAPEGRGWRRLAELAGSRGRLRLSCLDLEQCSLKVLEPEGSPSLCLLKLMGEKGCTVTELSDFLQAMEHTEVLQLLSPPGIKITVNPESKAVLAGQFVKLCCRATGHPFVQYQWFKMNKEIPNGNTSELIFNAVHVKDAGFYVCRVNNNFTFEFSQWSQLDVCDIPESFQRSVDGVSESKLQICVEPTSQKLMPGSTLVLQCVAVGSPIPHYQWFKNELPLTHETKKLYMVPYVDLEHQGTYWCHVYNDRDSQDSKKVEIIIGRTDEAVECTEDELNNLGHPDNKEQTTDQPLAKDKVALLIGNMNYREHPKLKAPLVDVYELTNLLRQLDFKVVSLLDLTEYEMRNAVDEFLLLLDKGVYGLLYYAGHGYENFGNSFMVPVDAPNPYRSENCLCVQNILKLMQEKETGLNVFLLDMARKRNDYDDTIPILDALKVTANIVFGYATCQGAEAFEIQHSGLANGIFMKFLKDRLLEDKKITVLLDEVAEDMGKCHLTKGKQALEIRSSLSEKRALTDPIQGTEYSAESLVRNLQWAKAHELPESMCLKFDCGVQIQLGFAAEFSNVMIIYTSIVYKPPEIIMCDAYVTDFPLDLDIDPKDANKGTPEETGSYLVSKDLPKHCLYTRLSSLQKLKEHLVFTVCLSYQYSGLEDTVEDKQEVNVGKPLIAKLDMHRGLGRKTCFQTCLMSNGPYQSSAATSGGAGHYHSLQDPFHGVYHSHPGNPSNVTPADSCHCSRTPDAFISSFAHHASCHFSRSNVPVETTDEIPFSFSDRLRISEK


Experiments:
Assay in all cases: immunoblots of bio-IPs from Jurkat cells with stable expression
[1] = target: T1, MALT1 (wild type, Flag- and Avi-tagged …)
MALT1-R149A (bio-tagged) = target: T2, MALT1-R149A (bio-tagged)
MALT1-C464A (bio-tagged) = target: T3, MALT1-C464A (bio-tagged)

| binding result [1] | binding result (MALT1-R149A (bio-tagged)) | binding result (MALT1-C464A (bio-tagged)) | Binder |
| --- | --- | --- | --- |
| binds | – | – | BCL10 (other, UniProt O95999 1-233, looked up, Co-precipitated from lysates of human cell lines) MEPTAPSLTEEDLTEVKKDALENLRVYLCEKIIAERHFDHLRAKKILSREDTEEISCRTSSRKRAGKLLDYLQENPKGLDTLVESIRREKTQNFLIQKITDEVLKLRNIKLEHLKGLKCSSCEPFPDGATNNLSRSNSDESNFSEKLRASTVMYHPEGESSTTPFFSTNSSLNLPVLEVGRTENTIFSSTTLPRPGDPGAPPLPPDLQLEEEGTCANSSEMFLPLRSRTVSRQ |
| – | binds | binds | TRAF6 (other, UniProt Q9Y4K3 1-522, looked up, Co-precipitated from lysates of human cell lines) MSLLNCENSCGSSQSESDCCVAMASSCSAVTKDDSVGGTASTGNLSSSFMEEIQGYDVEFDPPLESKYECPICLMALREAVQTPCGHRFCKACIIKSIRDAGHKCPVDNEILLENQLFPDNFAKREILSLMVKCPNEGCLHKMELRHLEDHQAHCEFALMDCPQCQRPFQKFHINIHILKDCPRRQVSCDNCAASMAFEDKEIHDQNCPLANVICEYCNTILIREQMPNHYDLDCPTAPIPCTFSTFGCHEKMQRNHLARHLQENTQSHMRMLAQAVHSLSVIPDSGYISEVRNFQETIHQLEGRLVRQDHQIRELTAKMETQSMYVSELKRTIRTLEDKVAEIEAQQCNGIYIWKIGNFGMHLKCQEEEKPVVIHSPGFYTGKPGYKLCMRLHLQLPTAQRCANYISLFVHTMQGEYDSHLPWPFQGTIRLTILDQSEAPVRQNHEEIMDAKPELLAFQRPTIPRNPKGFGYVTFMHLEALRQRTFIKDDTLLVRCEVSTRFDMGSLRREGFQPRSTDAGV |
